Test results reported in patent US9289381B2, “Stabilization and storage of biological pharmaceutical compositions” (The University of North Carolina at Charlotte, priority 2009, dated 2016).
“And” between values parts separate entries of the source, which are not always exact repeats. Equal values may be shown once.

Columns and labels:
[1] = Microcalorimetry (DSC) of 1 mg/ml HEWL solutions in 0-40% w/w CDHP or 20% choline chloride in 0.1M NaOAc; format: physicochemical
Method: All samples were prepared in triplicate. A MicroCal VP-DSC microcalorimeter was used to assess thermal structural stability of all samples. […] HEWL solutions were tested similarly with no dilution of the samples. Between samples, during the filling period of 15° C. to 25° C., the sample cell of the DSC was flushed with at least 25 ml distilled H2O, then at least 15 ml NaOAc to ensure no sample residue remained behind. Thermal profiles, enthalpy changes, and transition temperatures were obtained with Origin software.

[2] = Microcalorimetry (DSC) of HEWL dispersions stored in 80% w/w CDHP or 0.1M NaOAc; format: physicochemical; design: Thermal transition midpoint temperature of HEWL: unit not given here
Method: The samples were formulated in 2 ml silanized glass vials to reduce protein-surface interactions, covered with cap and septa, wrapped with parafilm to ensure no drying out of the sample, and stored away from sunlight. They were stirred for at least 24 hours until a homogeneous distribution of protein was obtained. […] The 35 silanized vials were exposed to UV light for 24 hours to ensure sterility. Control samples at equivalent concentrations were also prepared in triplicates in 0.1M NaOAc buffer (pH 4). Samples were tested for thermal stability via microcalorimetry and functional activity via the micrococcus lysodeikticus assay at monthly intervals.
A MicroCal VP-DSC microcalorimeter was used to assess thermal structural stability of all samples. Baseline repeatability was established with a minimum of 5 buffer-buffer scans. […] HEWL solutions were tested similarly with no dilution of the samples. Between samples, during the filling period of 15° C. to 25° C., the sample cell of the DSC was flushed with at least 25 ml distilled H2O, then at least 15 ml NaOAc to ensure no sample residue remained behind. Thermal profiles, enthalpy changes, and transition temperatures were obtained with Origin software.
All formulations were diluted to 0.1-0.5 mg/ml for testing. This allows one to observe how well protein thermal stability and structural integrity is maintained following storage and then dilution into a solution of similar composition as the environment of the body.

[3] = 20% w/w Choline Chloride in 0.1M NaOAc

## HEWL: hen egg white lysozyme (HEWL), a well characterized protein, purchased from Worthington Biochem
[1]; 0% w/w CDHP
  Gibbs free energy change at 25 C.: 15.57794 kcal/mol and 14.4963 kcal/mol and 15.03024 kcal/mol
[1]; 0% w/w CDHP in 0.1M NaOAc
  Tm: 75.18 °C and 75.19 °C and 75.25 °C
  ΔH: 104.019 kcal/mol and 107.8 kcal/mol and 100.216 kcal/mol
  ΔS: 298.62 cal/mol K and 309.47 cal/mol K and 287.65 cal/mol K
[1]; 5% w/w CDHP
  Gibbs free energy change at 25 C.: 15.91862 kcal/mol and 15.48014 kcal/mol and 14.73002 kcal/mol
[1]; 5% w/w CDHP in 0.1M NaOAc
  Tm: 76.08 °C and 76.07 °C and 75.4 °C
  ΔH: 100.408 kcal/mol and 108.54 kcal/mol and 106.838 kcal/mol
  ΔS: 287.51 cal/mol K and 310.81 cal/mol K and 306.57 cal/mol K
[1]; 10% w/w CDHP
  Gibbs free energy change at 25 C.: 15.05244 kcal/mol and 16.93442 kcal/mol and 15.29508 kcal/mol
[1]; 10% w/w CDHP in 0.1M NaOAc
  Tm: 76.08 °C and 76.10 °C and 77.09 °C
  ΔH: 104.26 kcal/mol and 102.581 kcal/mol and 113.549 kcal/mol
  ΔS: 298.54 cal/mol K and 293.72 cal/mol K and 324.21 cal/mol K
[1]; 20% w/w CDHP
  Gibbs free energy change at 25 C.: 18.36296 kcal/mol and 17.40526 kcal/mol and 17.75496 kcal/mol
[1]; 20% w/w CDHP in 0.1M NaOAc
  Tm: 78.82 °C and 78.94 °C and 78.79 °C
  ΔH: 115.791 kcal/mol and 119.528 kcal/mol and 113.549 kcal/mol
  ΔS: 328.98 cal/mol K and 339.48 cal/mol K and 322.63 cal/mol K
[1]; 20% w/w Choline Chloride
  Gibbs free energy change at 25 C.: 13.3979 kcal/mol and 12.59732 kcal/mol and 12.72542 kcal/mol
[1]; [3]
  Tm: 72.47 °C and 72.62 °C and 72.36 °C
  ΔH: 92.354 kcal/mol and 96.972 kcal/mol and 91.615 kcal/mol
  ΔS: 267.21 cal/mol K and 280.45 cal/mol K and 265.16 cal/mol K
[1]; 30% tw/w CDHP
  Gibbs free energy change at 25 C.: 20.716 kcal/mol and 17.0974 kcal/mol and 22.40708 kcal/mol
[1]; 30% w/w CDHP in 0.1M NaOAc
  Tm: 81.86 °C and 82.00 °C and 81.80 °C
  ΔH: 139.533 kcal/mol and 128.741 kcal/mol and 106.557 kcal/mol
  ΔS: 393.04 cal/mol K and 362.5 cal/mol K and 300.2 cal/mol K
[1]; 40% w/w CDHP
  Gibbs free energy change at 25 C.: 25.634 kcal/mol and 23.8304 kcal/mol and 24.0018 kcal/mol
[1]; 40% w/w CDHP in 0.1M NaOAc
  Tm: 86.27 °C and 86.39 °C and 86.37 °C
  ΔH: 140.49 kcal/mol and 149.751 kcal/mol and 139.216 kcal/mol
  ΔS: 390.9 cal/mol K and 416.5 cal/mol K and 307.2 cal/mol K
[2]; 10 mg/ml HEWL control formulation (0.1M NaOAc)
  enthalpic change during unfolding at 1 month, % of the maximum (average): 64%
[2]; 10 mg/ml HEWL in 80% w/w CDHP
  enthalpic change during unfolding at 1 month, % of the maximum (average): 87%
[2]; 100 mg/ml HEWL control formulation (0.1M NaOAc)
  enthalpic change during unfolding at 1 month, % of the maximum (average): 60%
[2]; 100 mg/ml HEWL in 80% w/w CDHP
  enthalpic change during unfolding at 1 month, % of the maximum (average): 85%
[2]; 80% CDHP wt/wt vs 0.1M sodium acetate pH 4.0, 1-3 months at room temperature
  shelf-life (fraction of folded protein, Cp signal): superior shelf-life
[2]; HEWL control formulations (0.1M NaOAc)
  drop of Tm over 5 months: between one and two degrees
[2]; HEWL formulated in 80% w/w CDHP
  drop of Tm over 5 months: less than a degree
[2]; stored at 10 mg/ml in 0.1M NaOAc, 0 months
  Enthalpy of unfolding of HEWL: 99.49 kcal/mol and 102.53 kcal/mol and 105.48 kcal/mol
[2]; stored at 10 mg/ml in 0.1M NaOAc, 1 month
  Enthalpy of unfolding of HEWL: 71.64 kcal/mol and 67.32 kcal/mol and 58.77 kcal/mol
[2]; stored at 10 mg/ml in 0.1M NaOAc, 2 months
  Enthalpy of unfolding of HEWL: 53.856 kcal/mol and 52.812 kcal/mol and 56.88 kcal/mol
[2]; stored at 10 mg/ml in 0.1M NaOAc, 3 months
  Enthalpy of unfolding of HEWL: 39.168 kcal/mol and 40.734 kcal/mol and 40.69 kcal/mol
[2]; stored at 10 mg/ml in 0.1M NaOAc, 4 months
  Enthalpy of unfolding of HEWL: 24.8706 kcal/mol and 36.9316 kcal/mol and 26.9568 kcal/mol
[2]; stored at 10 mg/ml in 0.1M NaOAc, 5 months
  Enthalpy of unfolding of HEWL: 18.4 kcal/mol and 20.9 kcal/mol and 22.4 kcal/mol
[2]; stored at 10 mg/ml in Choline dhp (80% w/w CDHP), 0 months
  Enthalpy of unfolding of HEWL: 102 kcal/mol and 101.7 kcal/mol and 108.3 kcal/mol
[2]; stored at 10 mg/ml in Choline dhp, 0 months
  Thermal transition midpoint temperature of HEWL: 346.71 and 346.74
